Data on three molecules can be found in patent publication US20250382353A1 (published 2025).

Targets include BA.2; rVSV Beta spike (SARS-CoV-2 Beta, UniProt P0DTC2 14-1252); rVSV-Delta spike (SARS-CoV-2 Delta, UniProt P0DTC2 14-1252).
Holding throughout (assay): SPR
For orientation: Surface plasmon resonance follows binding to a sensor surface in real time, without labels.

The target in test [1] is SARS-CoV-2 Omicron BA.1 spike (SARS-CoV-2 Omicron BA.1, UniProt P0DTC2 14-1208).

B1: Fab 1C3 (Fab, V domains shown)
VH: QVQLLESGGGLVQPGRSLRLSCAASGFTFDDYAMHWVRQPPGKGLEWVSGSSWNSGSVVYADSVKGRFTISRDSAKNSLHLQMNSLRVEDTALYYCAKAVDPTRGSYSPDYGFDIWGQGTMVTVS
VL: not shown
What is called Kd is a measure of binding affinity in units of concentration. High values mean a looser complex, low ones a tighter complex. In the test with BA.2, B1 showed a dissociation constant Kd of 23 pM.

B2: 1C3 antigen-binding fragment (Fab) (Fab, V domains shown)
VH: B1 VH
VL: not shown
For B2, the dissociation constant (Kd) with rVSV Beta spike stood at 39 pM; in test [1], 41 pM; with rVSV-Delta spike, 36 pM.

B3: Fab 2A10 (antibody, V domains shown)
VH: QVQLVESGGGLIQPGGSLRLSCAASEFIVSSNYMSWVRQAPGKGLEWVSLLYSGGTTYYADSVKGRFTISRDNSKNTLFLQMNSLRAEDTAMYYCARDRGPWLHDYWGQGTLVTVS
VL: DIVMTQSPSSLSASVGDRVTITCQASQDINKYCNWYQQKPGKAPKLLIYDASNLETGVPSRFSGSGSGTDFTFTINSLQPEDIATYYCQQYDNLPPTFGGGTKVEIK
As for B3, the results for the Kd (in test [1]; with rVSV-Delta spike) were 4420 pM and 132 pM, respectively.
